Data published in patent publication US20230030314A1, “Method for Diagnosing Cancer, Cancer Diagnosis Composition, Cancer Diagnosis Kit, Method for Evaluating State of Cancer, and Method for Screening Agents for Preventing and/or Treating Cancer” (Kyushu University, National University Corporation, priority 2019, published 2023).
Ends that are not written are not given here.

Target: T1, PKCα (Homo sapiens, UniProt P17252)
T1 construct: endogenous in cells; host or cells: KU-1, KU-7, T24, TCCSUP, UMUC-3 bladder cancer cells
Assay: Phosphorylation of substrate peptide in bladder cancer-derived culture cells, MALDI-TOF MS
Format: biochemical
Settings: bladder cancer-derived culture cells KU-1, KU-7, T24, TCCSUP, UMUC-3 (0.2 mg/ml cells); 30 μM peptide, 100 μM ATP, 37° C., 60 minutes
Experimental: An α-cyano-4-hydroxycinnamic acid (CHCA) matrix (10 mg/ml) was prepared in 50% water/acetonitrile and 0.1% TFA. This matrix and a sample were mixed in a ratio of 20:1. The resultant specimen/matrix mixture in a total volume of 1 μl was applied on a sample plate, and the resultant was crystallized by drying. In this example, Auto Flex Speed manufactured by Bruker was used in positive or negative mode. An acceleration voltage was set to 20 kV, and extraction delay time was set to 100 ns. Typically, 100 laser shots were averaged to improve a signal/noise ratio. All spectra were analyzed with Flex Analysis software (Bruker). A phosphorylation percentage was defined as an ionic strength ratio between a phosphorylated substance and a non-phosphorylated substance, and was calculated in accordance with existing description (Kang, J. -H. et al., (2007) J. Am. Soc. Mass Spectrom. 18, 106-112; and Kang J. -H. et al., (2007) J. Am. Soc. Mass Spectrom. 18, 1925-1931). In order to examine whether or not the PKCα specific substrate peptide could be phosphorylated by bladder cancer, culture cells derived from 5 different bladder cancers (KU-1, KU-7, T24, TCCSUP, and UMUC-3) were analyzed by MALDI-TOF MS. […] After performing incubation at 37° C. for 60 minutes, the resultant sample was analyzed by MALDI-TOF MS.

FKKQGSFAKKK-NH2 [substrate peptide]
phosphorylation percentage of the substrate peptide: high phosphorylation percentages
